# Measurements taken from patent publication EP4711453A1, “PHENYLALANINE LYASE MUTANT, AND CONJUGATE THEREOF OR PHARMACEUTICALLY ACCEPTABLE SALT THEREOF” (Peg-Bio Biopharm Co., Ltd. (Chongqing), priority 2023, dated 2024).
# Several values for one entry are separate records, joined by “and”; a condition that tells them apart may be missing. Equal values may be shown once.
# B1: PL54-5: polyethylene glycol conjugate of PAL4 (SEQ ID NO: 6) with PEG-SPA-5K, molar ratio 1:16, average degree of modification 13.60 (conjugate)
# chain: MKTLSQAQSKTSSQQFSFTGNSSANVIIGNQKLTINDVARVARNGTLVSLTNNTDILQGIQASCDYINNAVKSGEPIYGVTSGFGGMANVAISREQASELQTNLVWFLKTGAGNKLPLADVRAAMLLRANSHMRGASGIRLELIKRMEIFLNAGVTPYVYEFGSIGASGDLVPLSYITGSLIGLDPSFKVDFNGKEMDAPTALRQLNLSPLTLLPKEGLAMMNGTSVMTGIAANCVYDTKILTAIAMGVHALDIQALNGTNQSFHPFIHNSKPHPGQLWAADQMISLLANSQLVRDELDGKHDYRDHELIQDRYSLRCLPQYLGPIVDGISQIAKQIEIEINSVTDNPLIDVDNQASYHGGNFLGQYVGMGMDHLRYYIGLLAKHLDVQIALLASPEFSNGLPPSLLGNRERKVNMGLKGLQICGNSIMPLLTFYGNSIADRFPTHAEQFNQNINSQGYTSATLARKSVDIFQNYVAIALMFGVQAVDLRTYKKTGHYDARASLSPATERLYSAVRHVVGQKPTSDRPYIWNDNEQGLDEHIAKISADIAAGGVIVQAVQDILPSLH
# modifications: PEG-SPA-5K conjugate, ~13.6 PEG per molecule
# Assays:
# [1] = tested on: serum phenylalanine; experiment: Comparative pharmacodynamics with Pegvaliase: serum phenylalanine after multiple administrations; type: in vivo; details: Pah^enu mice, 3 mg/kg s.c. once weekly; second to fourth administrations
# Description: To evaluate the differences in pharmacodynamics and immunogenicity between the polyethylene glycol conjugate PL54-5 of directionally saturated modified phenylalanine lyase mutant and Pegvaliase (marketed drug), eight Pah^enu mice were allocated into two groups of four mice each, and administered with either PL54-5 (average degree of modification: 13.60, specific enzyme activity: 1.27 U/mg) from Table 3 of Example 2 or Pegvaliase Injection (manufactured by BioMarin, purchased lot number L161239, specification: 20 mg/mL/vial) at an administration dose of 3.0 mg/kg, once weekly via subcutaneous injection for four consecutive weeks. Blood samples were collected from each group of mice before administration and at 3 days and 7 days after each administration, respectively. Changes in serum phenylalanine concentration were measured (Reference: Judy Peat et al., Determination of Phenylalanine and Tyrosine by High Performance Liquid Chromatography-Tandem Mass Spectrometry) and anti-PEG-IgM/IgG antibody titers of each animal were determined at the end of the study (see Example 5 for details), to assess differences in pharmacodynamics and immunogenicity, as shown in FIG. 11 and FIG. 12.
# [2] = tested on: anti-PAL4 protein antibodies; experiment: Anti-PAL4 protein antibody after multiple administrations in phenylketonuria model mice; type: in vivo; details: Pah^enu mice
# [3] = parameters: species or system SD rats; details: rat, in vivo, sc, 2 mg/kg
# Description: To evaluate PEGylated conjugates of phenylalanine lyase or its mutants with different average degrees of modification, the inventors divided SD rats into four groups (n=6 per group). The animals were subcutaneously injected with PL54-1 and PL54-5 (average degrees of modification: 10.54 and 13.60, respectively) and PL5-1 and PL5-5 (average degrees of modification: 8.2 and 10.53, respectively) from Table 3 of Example 2 at a dose of 2 mg/kg once a week for four doses. Blood samples were collected on D1 (Day 1), D3 (Day 3), and D7 (Day 7) after the first dose, as well as on D3 and D7 following each subsequent dose. The concentrations of PL54-1, PL54-5, PL5-1, and PL5-5 in rat serum were determined by sandwich ELISA to assess plasma drug concentration maintenance after multiple administrations. Anti-PEG-IgM/IgG antibody titers in rat serum from each group were measured using indirect ELISA (coating with PEG-BSA, adding positive rat anti-PEG Abs/test serum samples, followed by HRP-conjugated anti-rat IgM/IgG detection), while bridging ELISA (coating with PAL protein, adding positive sheep anti-PAL Abs/acidified serum samples, followed by biotin-labeled PAL detection) was also performed. The plasma drug concentration results are shown in FIG. 4, and the antibody detection results after administration were shown in FIG. 4 and FIG. 5.
# [4] = Serum drug concentration after a single administration in phenylketonuria model mice (sandwich ELISA); type: in vivo; parameters: Blood drug concentration in serum: unit not given here; details: Pah^enu mice
# Description: Phenylalanine hydroxylase (PAH) was central to phenylalanine metabolism in animals, catalyzing the conversion of phenylalanine to tyrosine. Deficiency of this gene underlies phenylketonuria. […] Therefore, the homozygous mouse carrying the missense mutation F263S can be used as an animal model for phenylketonuria (referred to as the Pah^enu mouse or model mouse) in this drug study.
# To evaluate the polyethylene glycol conjugate PL54 of the site-saturation modified phenylalanine lyase mutant, six Pah^enu mice were assigned to three groups of two mice each. PL54-5 (average degree of modification 13.60, specific enzyme activity 1.27 U/mg) from Table 3 of Example 2 was administered to the phenylketonuria animal model mice at low, medium, and high doses of 0.5 mg/kg, 1.5 mg/kg, and 4.5 mg/kg, respectively, via subcutaneous injection. Blood samples were collected from mice in each group at 1 h before administration and at 1, 3, 5, 7, 10, and 14 days after administration, respectively, and the content of PL54-5 in serum was detected by sandwich ELISA (for details, see Example 5).
# [5] = Specific enzyme activity of phenylalanine lyase (trans-cinnamic acid formation, absorbance at 290 nm); type: biochemical
# Description: Phenylalanine lyase specifically catalyzes the conversion of phenylalanine into trans-cinnamic acid with the release of ammonia. […] Enzyme activity is defined as the amount of enzyme required to produce 1 µmol of trans-cinnamic acid per minute in buffer (100 mmol/L Tris-HCl, pH 8.5) at room temperature (25°C) as one unit of enzyme activity.
# The specific enzyme activity of phenylalanine lyase and its mutants (i.e., PAL, PAL2, PAL3, and PAL4 proteins) prepared in Example 1 was evaluated by taking an appropriate amount of test sample and diluting it to 0.4 mg/ml using assay buffer (100 mmol/L Tris-HCl, pH 8.0). 2.9 ml of substrate solution (100 mmol/L Tris-HCl, 45 mmol/L Phe, pH 8.0) was placed in a cuvette, followed by addition of 0.1 ml of diluted test solution and immediate mixing. The changes in absorbance per minute were recorded at a wavelength of 290 nm, and the specific enzyme activity was calculated according to the formula. Enzyme activity (U/mg) = (AS−AO)VN × 10^6 /εLTV1 [formula]
# Where AS and AO represent the absorbance of trans-cinnamic acid at the […] of the reaction, respectively; V is the total volume (L) of the reaction system; L is the optical path length of the cuvette (cm); ε is the molar extinction coefficient of trans-cinnamic acid (10238.1 L/(mol·cm)); T is the reaction time (min); N is the dilution factor of the test sample; V1 is the volume of test sample (ml).
# The enzyme activity retention rate was calculated by comparing the specific enzyme activity of phenylalanine lyase mutants with the specific enzyme activity of the phenylalanine lyase. Table 2: Specific enzyme activity of phenylalanine lyase mutants
# The specific enzyme activity of the polyethylene glycol conjugates of phenylalanine lyase and its mutants prepared in Step 1 of Example 2 was determined according to the method described in Step 1 of this example. The enzyme activity retention rate was calculated by comparing the specific enzyme activity of each conjugate with its specific enzyme activity prior to PEG modification (e.g., the enzyme activity retention rate of PL5-1 = specific enzyme activity of PL5-1 / specific enzyme activity of PAL protein). Table 3: Specific enzyme activity of PEGylated phenylalanine lyase mutants
molecule,measurement,setting,value
B1,phenylalanine-lowering effect,[1],consistently reduced phenylalanine levels on Day 3
same,anti-PAL4 protein antibodies,[2]; intramuscular administration group,weak positivity
same,anti-PAL4 protein antibodies,[2]; subcutaneous administration group,negative
same,plasma drug maintenance,[3],superior to that of PL5-1 and PL5-5
same,Blood drug concentration in serum,"[4]; single 0.5 mg/kg s.c., 1-D1, dilution 1:500",0.3
same,Blood drug concentration in serum,"[4]; single 0.5 mg/kg s.c., 1-D3, dilution 1:500",2.4
same,Blood drug concentration in serum,"[4]; single 0.5 mg/kg s.c., 1-D5, dilution 1:500",0.9
same,Blood drug concentration in serum,"[4]; single 0.5 mg/kg s.c., 1-D7, dilution 1:500",0.2
same,Blood drug concentration in serum,"[4]; single 0.5 mg/kg s.c., 1-D10, dilution 1:500",0.1
same,Blood drug concentration in serum,"[4]; single 0.5 mg/kg s.c., D0 (1 h before administration), dilution 1:50",0
same,Blood drug concentration in serum,"[4]; single 1.5mg/kg s.c., 1-D1, dilution 1:500, 1.5 mg/kg",0.5 and 0.6
same,Blood drug concentration in serum,"[4]; single 1.5mg/kg s.c., 1-D3, dilution 1:500, 1.5 mg/kg",2.7 and 2.2
same,Blood drug concentration in serum,"[4]; single 1.5mg/kg s.c., 1-D5, dilution 1:500",0.9
same,Blood drug concentration in serum,"[4]; single 1.5mg/kg s.c., 1-D7, dilution 1:500, 1.5 mg/kg",0.4 and 0.3
same,Blood drug concentration in serum,"[4]; single 1.5mg/kg s.c., D0 (1 h before administration), dilution 1:50",0
same,Blood drug concentration in serum,"[4]; single 4.5 mg/kg s.c., 1-D1, dilution 1:500, 4.5 mg/kg",1.6 and 0.8
same,Blood drug concentration in serum,"[4]; single 4.5 mg/kg s.c., 1-D3, dilution 1:500, 4.5 mg/kg",2.6 and 2.9
same,Blood drug concentration in serum,"[4]; single 4.5 mg/kg s.c., 1-D5, dilution 1:500, 4.5 mg/kg",1.9 and 1.2
same,Blood drug concentration in serum,"[4]; single 4.5 mg/kg s.c., 1-D7, dilution 1:500, 4.5 mg/kg",0.8 and 0.4
same,Blood drug concentration in serum,"[4]; single 4.5 mg/kg s.c., 1-D10, dilution 1:500",0
same,Blood drug concentration in serum,"[4]; single 4.5 mg/kg s.c., 1-D14, dilution 1:500",0.2
same,Blood drug concentration in serum,"[4]; single 4.5 mg/kg s.c., D0 (1 h before administration), dilution 1:50",0
same,plasma drug concentration in relation to the administration dose,"[4]; single s.c. injection, 0.5, 1.5 and 4.5 mg/kg",directly proportional to the administration dose
same,Enzyme activity retention rate,[5]; conjugate compared with its protein prior to PEG modification,83%
same,Specific enzyme activity,"[5]; polyethylene glycol conjugates, method as for the proteins",1.27 U/mg
